The record followed here is publication PMC9965349 (Viruses, 2023).

Where two headings read alike, the source gives them in different places. Residues, ends and D or L forms follow the SMILES beside them.

The koff is the first-order rate constant of dissociation. Low values mean slow dissociation, high ones fast dissociation. The term kon denotes the second-order rate constant of association. The low end stands for slow association, the high end for fast association.

For one data set, the target named is PEDV S1 protein (Porcine epidemic diarrhea virus, UniProt Q91AV1). The experiment in a line: SPR kinetic measurement (Biacore X100, CM5 chip). Format: binding.
Another data set has as its system Vero cells. Description: Cytotoxicity assay (CCK-8). Format: cell-based, African green monkey.
Data set [1] concerns the target T1, porcine epidemic diarrhea virus S protein (PEDV-S1) (porcine epidemic diarrhea virus).
T1 chain: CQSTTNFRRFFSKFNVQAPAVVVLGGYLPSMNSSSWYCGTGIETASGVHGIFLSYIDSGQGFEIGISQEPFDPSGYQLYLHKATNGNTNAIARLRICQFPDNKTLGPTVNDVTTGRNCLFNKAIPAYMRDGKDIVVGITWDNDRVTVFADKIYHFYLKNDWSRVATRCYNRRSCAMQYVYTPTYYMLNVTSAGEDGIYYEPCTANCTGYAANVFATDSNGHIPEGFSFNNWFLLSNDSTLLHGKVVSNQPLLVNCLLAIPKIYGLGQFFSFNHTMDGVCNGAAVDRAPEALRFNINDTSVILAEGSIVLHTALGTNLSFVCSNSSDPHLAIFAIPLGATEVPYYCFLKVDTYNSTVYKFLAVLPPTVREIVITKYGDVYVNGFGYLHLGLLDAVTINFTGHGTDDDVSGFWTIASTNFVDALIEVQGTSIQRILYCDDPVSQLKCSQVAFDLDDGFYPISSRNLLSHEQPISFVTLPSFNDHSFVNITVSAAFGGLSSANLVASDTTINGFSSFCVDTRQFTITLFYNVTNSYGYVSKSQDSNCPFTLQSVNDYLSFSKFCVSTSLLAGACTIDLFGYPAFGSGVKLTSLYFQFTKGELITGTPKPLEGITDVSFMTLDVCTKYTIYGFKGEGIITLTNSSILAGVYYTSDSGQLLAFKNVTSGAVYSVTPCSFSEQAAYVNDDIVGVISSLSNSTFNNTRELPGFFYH
Description: SPR. To be noted: both partners purified.

The target in data set [2] is T1, porcine epidemic diarrhea virus S …. The experiment in a line: ELISA. To be noted: both partners purified.
Setting [3] is: SPR, 1:1 binding fit, peptide 0.78125-25 μM, HBS-EP pH 7.4, 30 μL/min, 120 s association, 120 s dissociation.

In turn, `C[C@H](NC(=O)[C@H](CCC(=O)O)NC(=O)[C@H](CCCCN)NC(=O)[C@H](Cc1c[nH]c2ccccc12)NC(=O)[C@@H](N)Cc1ccccc1)C(=O)N[C@@H](CCCCN)C(=O)O` [compound 110616] (H-FWKEAK-OH) displayed a Kd at PEDV S1 protein of 772 nM.
On to `N=C(N)NCCC[C@H](NC(=O)[C@H](CCCCN)NC(=O)[C@H](CO)NC(=O)[C@H](CCCCN)NC(=O)[C@H](Cc1c[nH]c2ccccc12)NC(=O)[C@@H](N)Cc1ccccc1)C(=O)O` [compound 110766], for which the “Cell viability (CCK-8)” value in the data set with Vero cells (0.78125-400 µM, 24 h at 37 °C, normalized to control without peptide) is recorded as “over 90%”. For the same molecule, the “Cytotoxicity (in words)” value in the data set with Vero cells (CCK-8) is “not toxic to vero cells”. This molecule also returned a Kd on PEDV S1 protein of 216 nM.
Molecule `N=C(N)NCCC[C@H](NC(=O)[C@H](CC(N)=O)NC(=O)[C@H](Cc1ccccc1)NC(=O)[C@H](Cc1c[nH]cn1)NC(=O)[C@@H](N)Cc1c[nH]c2ccccc12)C(=O)N1CCC[C@H]1C(=O)O` [compound 115042] (H-WHFNRP-OH) had a Kd at PEDV S1 protein of 6520 nM.
On PEDV S1 protein (setting [3]), FWKQNKFLFWKQNKCL [compound 110490] yielded a Ka of 5743 M⁻¹ s⁻¹ and a Kd of 0.03522 s⁻¹.
As for FWKQNKFLFWKQNKCL [peptide 110490], in data set [1], the Kd was found to be 1500 nM, the koff came out at 0.0352 s⁻¹ and the kon came to 5740 M⁻¹ s⁻¹. In data set [2], the P/N value was greater than 67.9.
Take FWKSKR [peptide 110766]: the Kd in data set [1] amounted to 216 nM.
In data set [1], FWKEAK [peptide 110616] gave a Kd of 772 nM, a koff of 0.0236 s⁻¹ and a kon of 30500 M⁻¹ s⁻¹. In addition, in data set [2], the P/N value was greater than 67.9.
For WHFNRP [peptide 115042], in that order: 6520 nM, 0.0225 s⁻¹, 3450 M⁻¹ s⁻¹ and greater than 67.9.
